The record followed here is US10774143 (LA JOLLA INSTITUTE FOR ALLERGY AND IMMUNOLOGY, dated 2020).

Assay [1] concerns the target SWAP-70-like adaptor of T cells (SLAT), endogenous mouse protein (mouse) (UniProt Q8C2K1). Kind of assay: cell-based or functional assay.
For assay [2] the target is unchanged. Kind of assay: co-IP of SLAT and IP3R1 from CD4+ T cells pre-incubated with TAT protein, densitometry against control TAT-HA.
Assay [3] addresses T1, Flag-tagged IP3R1-f2.1 (residues 346-490) (Homo sapiens (Human), UniProt Q14643 346-490).
T1 construct: not shown: Flag tag
Kind of assay: co-IP from Jurkat-TAg cells cotransfected with Flag-IP3R1-f2.1.

Turning to “TAT-HA-2.1 Δ18 fusion protein (TAT-HA fused to IP3R1 residues 346-490 deleted of residues 400-417) (from UniProt Q14643 346-490)”, in assay [1], the anti-CD3/CD28-stimulated IFNγ production by CD4+ T cells (ELISA), reduction lay in the range of 15 to 20%. Further, the percent reduction of the SLAT-IP3R1 interaction in assay [2] was determined as 20%.

B1: Myc-tagged SLAT putative EF-hand domain (other)
chain: MALRKELLKSIWYAFTALDVEKSGKVSKSQLKVLSHNLYTVLHIPHDPVALEEHFRDDDDGPVSSQGYMPYL
notes: not shown: Myc tag downstream of the insert (pEF-Myc-His A/C vector)
As to B1, the binding result in assay [3] was “binds”.
